The values that follow come from patent US20240156980A1 (Molecular Partners, published 2024).

Experiment [1] has as its target T1, human EGFR on tumor cells (human, UniProt P00533 25-1210).
T1 construct: whole, on cells; also called EGFR on A431 cells
Nature of the experiment: flow cytometry on HCT 116 tumor cells, detection with anti-DARPin antibodies. How it is done: (§1) The determination of CD3 binding was performed with human CD3 on Jurkat cells, and binding to hEGFR on cells with HCT116 tumor cells, using Flow Cytometer Attune Nxt. A titration of prodrug DARPin molecules was incubated with 200′000 cells per well (for both Jurkat and HCT116 cells) for 30 min at 4° C. After washing, CD3 binding of DARPin® molecule was detected by 1:1000-diluted anti-DARPin® Antibody-Mix (1 h incubation at 4° C.) with the corresponding secondary antibody anti-rabbit IgG Alexa Fluor 488 (30 min incubation at 4° C.), which was added after washing off excess anti-DARPin Antibodies. Cells were subsequently washed and stained for livedead (aqua, 1:1000, thermofisher) and resuspended in Cytofix fixation buffer (BD Biosciences). Median of mean fluorescence intensities of Alexa Fluor 488 binding on live cells were measured by Flow Cytometry and data was plotted using GraphPad Prism 8.

Experiment [2] addresses T2, human CD3 on T cells (human, UniProt P07766 23-207; P09693 23-182; P04234 22-171).
T2 construct: whole, on cells; also called human CD3 on Jurkat wt cells; CD3 on pan T-cells
The experiment in a line: flow cytometry on Jurkat cells, detection with anti-DARPin antibodies and anti-rabbit IgG Alexa Fluor 488, MFI [column T-cell binding]. As to the method:
as §1

Experiment [3] has as its target T1, human EGFR on tumor cells. Nature of the experiment: cell-based or functional assay.
For experiment [4], the target named is T2, human CD3 on T cells. The experiment in a line: cell-based or functional assay.
For experiment [5], the target named is T3, recombinant human EGFR extracellular domain (human, UniProt P00533 25-645).
T3 construct: range 25-645; The range L25-S645 is stated for the ECD used in the selection; the SPR analyte is printed as hEGFR / recombinant human EGFR ECD; also called hEGFR; human EGFR ECD
The experiment in a line: SPR (ProteOn XPR36); biotinylated DARPin captured on NLC chip, EGFR ECD as analyte; 1:1 Langmuir fit. As to the method: (§2) All SPR measurements were performed using a ProteOn™ XPR36 Protein Interaction Array System (Bio-Rad). […] PBS pH7.4 containing 0.005% Tween-20 (Sigma) was used as flow buffer, which was additionally supplemented with 1 mg/ml BSA in the case of mEGFR target. A three-fold dilution series from 0.74 nM to 60 nM of hEGFR or mEGFR was injected for 180 s at a flow rate of 100 ul/min, and dissociation was recorded for 1800 s. The captured DARPin molecules were regenerated by a single pulse of 10 mM glycine-HCl, pH 2.5+1M NaCl. The data was double-referenced using the interspots (surface reference) and a blank injection (buffer reference). Each individual dilution-set was fitted to the Langmuir-1:1-model.

The target in experiment [6] is T4, recombinant mouse EGFR extracellular domain (mouse, UniProt Q01279 25-647).
T4 construct: extracellular domain; Bought protein; also called mEGFR; mouse EGFR ECD
The experiment is described as above. As to the method: as §2

For experiment [7], the target named is T5, CD3-specific binding domain C7v14.
T5 construct: Used as analyte in SPR; also called hC22_88B02v14
T5 chain: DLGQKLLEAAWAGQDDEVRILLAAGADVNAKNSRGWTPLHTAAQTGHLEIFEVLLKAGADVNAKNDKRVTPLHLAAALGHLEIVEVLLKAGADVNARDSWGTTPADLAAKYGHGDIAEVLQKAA
Nature of the experiment: SPR validation of down-tuned binders.

Positions count from the first letter of the chain named.

T2 sequence (P07766 23-207, chain 1 of 3): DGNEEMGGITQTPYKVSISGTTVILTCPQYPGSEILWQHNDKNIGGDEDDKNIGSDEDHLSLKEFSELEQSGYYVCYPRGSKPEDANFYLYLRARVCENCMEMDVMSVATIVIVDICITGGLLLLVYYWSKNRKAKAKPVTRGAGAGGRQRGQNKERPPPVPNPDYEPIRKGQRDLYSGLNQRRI
T2 sequence (P09693 23-182, chain 2 of 3): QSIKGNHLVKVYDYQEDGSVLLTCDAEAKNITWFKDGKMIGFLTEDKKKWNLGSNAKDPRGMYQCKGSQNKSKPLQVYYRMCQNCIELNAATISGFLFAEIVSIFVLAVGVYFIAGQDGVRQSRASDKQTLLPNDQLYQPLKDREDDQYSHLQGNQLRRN
T2 sequence (P04234 22-171, chain 3 of 3): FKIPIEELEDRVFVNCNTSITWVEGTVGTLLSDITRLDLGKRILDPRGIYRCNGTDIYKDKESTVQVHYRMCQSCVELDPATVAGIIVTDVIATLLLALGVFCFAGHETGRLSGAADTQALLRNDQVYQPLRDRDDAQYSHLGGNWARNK

B1: CD3-PDD CL EGFR-C7v119-[Linker#2]-06E05v07-6His (designed binder)
chain: MGSDLGYKLLRAAFHGQDDEVRILLAAGADVNAKDLIGQTPLHNAAWVGHLEIVEVLLKAGADVNAKDYYGNTPLHLAAHDGHLEIVEVLLKAGADVNAQDTWGETPADLATNAGHEDIAEVLQKAAGSPTPTPTTPTPTPTTPTPTPTGSDLGQKLLEAAWAGQDDEVRELLKAGADVNAKNSRGWTPLHTAAQTGHLEIFEVLLKAGADVNAKDDKGVTPLHLAAALGHLEIVEVLLKAGADVNAQDSWGTTPADLAAKYGHEDIAEVLQKAASGGGGGPQASTGRSGGGGGGSDLGKKLLQAARAGQLDEVRELLKAGADVNAKDAKGLTPLHLAAYHGHLEIVEVLLKAGADVNAKDVYGWTPLHIAAASGHLEIVEVLLKAGADVNAKDWLGWTPLHLAASAGHLEIVEVLLKAGADVNAQDKSGKTPADLAARAGHQDIAEVLQKAAGSHHHHHH
The molecule B1 registered an EC50 in experiment [1] of 354 pM. For the same molecule, in experiment [2], the binding result is listed as “no binding (tested: 100000 pM)”.

B2: CD3-PDD CL EGFR-C7v122-[Linker#2]-06E05v07-6His (designed binder)
chain: B1 chain with D216N, G219R, Q248R, E265Q
B2 gave a concentration giving a half-maximal response (EC50) in experiment [1] of 410 pM. The binding result in experiment [2] is “no binding”.

B3: Active TCE EGFR-C7v14-6His (designed binder)
chain: MGSDLGYKLLRAAFHGQDDEVRILLAAGADVNAKDLIGQTPLHNAAWVGHLEIVEVLLKAGADVNAKDYYGNTPLHLAAHDGHLEIVEVLLKAGADVNAQDTWGETPADLATNAGHEDIAEVLQKAAGSPTPTPTTPTPTPTTPTPTPTGSDLGQKLLEAAWAGQDDEVRILLAAGADVNAKNSRGWTPLHTAAQTGHLEIFEVLLKAGADVNAKNDKRVTPLHLAAALGHLEIVEVLLKAGADVNARDSWGTTPADLAAKYGHGDIAEVLQKAAGSHHHHHH
Consider B3, for which, in experiment [3], the “T-cell activation EC50 (CD25 on CD8+ T cells), EGFR+ HCT 116 tumor cells and pan T-cells” value worked out at 1.6 pM; the “T-cell activation EC50 (CD25 on CD8+ T cells), EGFR+++ A431 tumor cells and pan T-cells” value was 3.7 pM.

B4: CD3-PDD NCL EGFR-C7v119-[NCL1]-06E05v05-6His (designed binder)
chain: MGSDLGYKLLRAAFHGQDDEVRILLAAGADVNAKDLIGQTPLHNAAWVGHLEIVEVLLKAGADVNAKDYYGNTPLHLAAHDGHLEIVEVLLKAGADVNAQDTWGETPADLATNAGHEDIAEVLQKAAGSPTPTPTTPTPTPTTPTPTPTGSDLGQKLLEAAWAGQDDEVRELLKAGADVNAKNSRGWTPLHTAAQTGHLEIFEVLLKAGADVNAKDDKGVTPLHLAAALGHLEIVEVLLKAGADVNAQDSWGTTPADLAAKYGHEDIAEVLQKAASGPTPTPTTPTPTPTTPTPTPTGSDLGKKLLQAARAGQLDEVRELLKAGADVNAKDAKGLTPLHLAAYHGHLEIVEVLLKAGADVNAKDVYGWTPLHIAAASGHLEIVEVLLKAGADVNAKDALGWTPLHLAASHGHLEIVEVLLKAGADVNAQDKSGKTPADLAARAGHQDIAEVLQKAAGSHHHHHH
Consider B4, for which, in experiment [4], the “tumor cell killing EC50 (LDH release), HCT 116 tumor cells and pan T-cells” value was 82.1 pM.

B5: CD3-PDD NCL EGFR-C7v119-[NCL1]-06E05v07-6His (designed binder)
chain: B4 chain with A398W, H410A
On to B5, for which the response in experiment [1] was half-maximal at 503 pM (EC50). For the same molecule, the binding result in experiment [2] is reported as “no binding (tested: 100000 pM)”.

B6: CD3-PDD NCL EGFR-C7v122-[NCL1]-06E05v05-6His (designed binder)
chain: B4 chain with D216N, G219R, Q248R, E265Q
B6: the “tumor cell killing EC50 (LDH release), HCT 116 tumor cells and pan T-cells” value in experiment [4] was above 100 pM.

B7: CD3-PDD NCL EGFR-C7v122-[NCL1]-06E05v07-6His (designed binder)
chain: B4 chain with D216N, G219R, Q248R, E265Q, A398W, H410A
In experiment [1], B7 displayed a half-maximal effective concentration (EC50) of 593 pM. Further, the binding result in experiment [2] is “no binding”.

B8: anti-EGFR DARPin (biotinylated, monovalent EGFR-specific ankyrin repeat domain) (designed binder)
chain: MGSDLGYKLLRAAFHGQDDEVRILLAAGADVNAKDLIGQTPLHNAAWVGHLEIVEVLLKAGADVNAKDYYGNTPLHLAAHDGHLEIVEVLLKAGADVNAQDTWGETPADLATNAGHEDIAEVLQKAA
modifications: biotinylated (site not stated)
Consider B8, for which, in experiment [5], the Kd stood at 470 pM, the koff stood at 0.0002 s⁻¹ and the kon was determined as 420000 M⁻¹ s⁻¹. In experiment [6], the Kd stood at 490 pM, the off-rate constant (koff) was 0.00032 s⁻¹ and the kon was determined as 640000 M⁻¹ s⁻¹.

B9: Binder #5 (designed binder)
chain: MRGSHHHHHHGSDLGKKLLQAARAGQLDEVRELLKAGADVNAKDAKGLTPLHLAAYHGHLEIVEVLLKAGADVNAKDVYGWTPLHIAAASGHLEIVEVLLKAGADVNAKDWLGITPLHLAASHGHLEIVEVLLKAGADVNAQDKSGKTPADLAARAGHQDIAEVLQKAA
notes: N-terminal His-tag; also called 06E05v30
For B9, the binding result in experiment [7] is “binds”.

B10: Binder #6 (designed binder)
chain: B9 chain with Y79A
notes: N-terminal His-tag; also called 06E05v31
On to B10, for which the binding result in experiment [7] is listed as “binds”.

B11: Binder #10 (designed binder)
chain: B9 chain with Y79A, I114A
notes: N-terminal His-tag; also called 06E05v35
Turning to B11, the binding result in experiment [7] was “binds”.

B12: Binder #7 (designed binder)
chain: B9 chain with W111A
notes: N-terminal His-tag; also called 06E05v32
With B12, the binding result in experiment [7] is recorded as “binds”.

B13: Binder #11 (designed binder)
chain: B9 chain with W111A, I114A
notes: N-terminal His-tag; also called 06E05v36
B13: the binding result in experiment [7] was “binds”.

B14: Binder #8 (designed binder)
chain: B9 chain with H123A
notes: N-terminal His-tag; also called 06E05v33
For the molecule B14, in experiment [7], the binding result is “binds”.

B15: Binder #9 (designed binder)
chain: B9 chain with I114A
notes: N-terminal His-tag; also called 06E05v34
Regarding B15, the binding result in experiment [7] was “binds”.

B16: Binder #12 (designed binder)
chain: B9 chain with I114A, H123A
notes: N-terminal His-tag; also called 06E05v37
Consider B16, for which the binding result in experiment [7] was “binds”.
